We go through 1 molecule from US20210130484A1 (SORRENTO THERAPEUTICS, published 2021).

The target in this experiment is T1, Recombinant human his-tagged CD38 protein (human, UniProt P28907 43-300).
T1 construct: not shown: his tag
Description: SPR (Biacore T200, 25 C), antibody captured on anti-human Fc CM5 chip, his-tagged human CD38 as analyte, steady state affinity model. On the procedure: Binding kinetics of parent antibody CD38 A2 and variant antibody CD38 A2 SV was measured using surface plasmon resonance (SPR). Kinetic interaction between the parent or variant antibody and a his-tagged CD38 protein were measured at 25° C. using Biacore T200 surface plasmon resonance (GE Healthcare). Anti-human fragment crystallizable region (Fc region) antibody was immobilized on a CM5 sensor chip to approximately 8000 resonance units (RU) using standard N hydroxysuccinimide/N Ethyl-N′-(3-dimethylaminopropyl) carbodiimide hydrochloride (NHS/EDC) coupling methodology. The CD38 A2 parent antibody or CD38 A2 SV variant antibody (2 μg/mL) was captured for 60 seconds at a flow rate of 10 μL/minute. Recombinant human his-tagged CD38 protein was serially diluted in a running buffer of 0.01 M HEPES pH 7.4, 0.15 M NaCl, 3 mM EDTA, 0.05% v/v Surfactant P20 (HBS EP+). All measurements were conducted in HBS-EP+buffer with a flow rate of 30 μL/minute. Steady state affinity model was used to get affinity. The sensorgrams of the CD38 A2 parent antibody and CD38 A2 SV variant antibody are shown in FIGS. 3A and B, respectively, and their corresponding binding kinetics are listed in Table 3 below.
(In general: SPR reads the build-up and loss of mass on a sensor chip optically.)

B1: variant antibody CD38 A2 SV (antibody, V domains shown)
VH: QVQLVESGGGLVKPGGSLRLSCAASGFTFSDDYMSWIRQAPGKGLEWVASVSNGRPTTYYADSVRGRFTISRDNAKNSLYLQMNSLRAEDTAVYYCAREDWGGEFTDWGRGTLVTVSS
VL: QSVLTQPPSASGTSGQRVTISCSGSSSNIGINFVYWYQHLPGTAPKLLIYKNNQRPSGVPDRFSGSKSGNSASLAISGLRSEDEADYYCAAWDDSLSGYVFGSGTKVTVL
notes: also called CD38-A2 SV mutant; CD38 A2 SV variant antibody
B1: the Kd – broadly, the concentration at which binding is half-saturated – was 15.6 nM.
